Values quoted from earlier work as cited in PMC6769837.

How the values were obtained:
[1] = target: integrin αvβ6 (Homo sapiens) (UniProt P06756)
[2] = target: integrin αvβ3 (Homo sapiens) (UniProt P06756)
[3] = target: integrin αvβ8 (Homo sapiens) (UniProt P06756)

In the case of LAP-TGFβ1 LAP (from UniProt P01137), the Kd [1] is given as 10.3 nM, the Kd [2] is given as 8500 nM and the Kd [3] is given as 0.013 nM.
